Data published in patent US20220396782.

Tested on: variant Cas12i2 (RNP, exact variant not stated in Examples 1-5)
Test: cell_activity
Conditions: HEK293T RNP 10 uM, 3 days

With “AGAAAUCCGUCUUUCAUUGACGGAGGUCCACUGGAGGAGAAGU / AGGTCCACTGGAGGAGAAGT / ACTTCTCCTCCAGTGGACCT [E4T6 Cas12i2 crRNA ; TTR E4T6 target]” the activity (PAM 5'-TTN (CTTC)) was greater than 80 % indels.
Work on “AGAAAUCCGUCUUUCAUUGACGGGUAUAUCCCUUCUACAAAUU / GTATATCCCTTCTACAAATT / AATTTGTAGAAGGGATATAC [E3T3 Cas12i2 crRNA ; TTR E3T3 target]” yielded an activity (PAM 5'-TTN (CTTT)) greater than 80 % indels.
For “AGAAAUCCGUCUUUCAUUGACGGUAGAUGCUGUCCGAGGCAGU / TAGATGCTGTCCGAGGCAGT / ACTGCCTCGGACAGCATCTA [E2T3 Cas12i2 crRNA ; TTR E2T3 target]”, the activity (PAM 5'-TTN (GTTC)) was greater than 80 % indels.
